{"source": "paper PMC7611114", "about": "(Nature chemistry, 2021)", "biological_target": "the molecule itself", "experiment": "crystal structure", "data": [{"protein": "Ac-GKKSAWATVISALATVISALATVISAWATVG-NH2", "note": "[K2-CCTM-VbIc]", "values": [{"measurement": "stoichiometry N", "value": 8}]}]}
